Source: paper PMC3166298, “Phosphorylation Alters the Interaction of the Arabidopsis Phosphotransfer Protein AHP1 with Its Sensor Kinase ETR1” (PLoS ONE, 2011)

What was measured:
Settings in all cases: both partners purified
[1] = target: T1, ethylene receptor ethylene response 1 (ETR1), wild type (Arabidopsis, UniProt P49333 1-738); test: fluorescence polarisation; wild type ETR1 pre-incubated with 0.1 mM copper chloride, added to wild type AHP1-GFP; with 100 uM ethephon; 50 mM Tris-HCl pH 7.5, 100 mM KCl, 0.1% beta-D-dodecylmaltoside, 0.002% PMSF
T1 construct: Solubilised in beta-D-dodecylmaltoside; also called sensor kinase ETR1; AtETR1
T1 sequence (looked up): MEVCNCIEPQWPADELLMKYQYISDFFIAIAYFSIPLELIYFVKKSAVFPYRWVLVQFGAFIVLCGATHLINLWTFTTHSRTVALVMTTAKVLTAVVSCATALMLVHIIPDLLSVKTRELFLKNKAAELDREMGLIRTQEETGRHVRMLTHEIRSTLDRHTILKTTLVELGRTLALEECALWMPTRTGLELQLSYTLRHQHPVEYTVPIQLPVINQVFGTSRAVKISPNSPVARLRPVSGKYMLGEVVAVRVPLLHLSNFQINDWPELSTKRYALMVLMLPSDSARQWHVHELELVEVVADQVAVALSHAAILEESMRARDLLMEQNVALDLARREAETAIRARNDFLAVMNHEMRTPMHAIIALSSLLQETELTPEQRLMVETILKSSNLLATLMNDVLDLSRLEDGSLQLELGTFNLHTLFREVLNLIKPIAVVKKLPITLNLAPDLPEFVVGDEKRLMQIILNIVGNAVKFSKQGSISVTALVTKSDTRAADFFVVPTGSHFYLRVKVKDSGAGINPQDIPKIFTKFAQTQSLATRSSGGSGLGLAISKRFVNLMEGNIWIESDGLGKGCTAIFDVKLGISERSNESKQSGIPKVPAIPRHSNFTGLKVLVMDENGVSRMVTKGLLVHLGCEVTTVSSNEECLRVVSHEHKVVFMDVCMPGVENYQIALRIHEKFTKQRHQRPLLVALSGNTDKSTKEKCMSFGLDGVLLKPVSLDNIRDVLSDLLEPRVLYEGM

[2] = target: T1, ethylene receptor ethylene response 1 …; test: fluorescence polarisation; control: wild type ETR1 and wild type AHP1-GFP with cyanide or ethephon but without the copper cofactor; same buffer
[3] = target: T1, ethylene receptor ethylene response 1 …; test: fluorescence polarisation; wild type ETR1 pre-incubated with 0.1 mM copper chloride, added to wild type AHP1-GFP; with 100 uM potassium cyanide; 50 mM Tris-HCl pH 7.5, 100 mM KCl, 0.1% beta-D-dodecylmaltoside, 0.002% PMSF

B1: AHP1-GFP(S65T), wild type Arabidopsis histidine-containing phosphotransfer protein 1 fused to green fluorescent protein (natural protein, UniProt Q9ZNV9 1-154, looked up)
chain: MDLVQKQKSLQDYTKSLFLEGILDSQFLQLQQLQDESNPDFVSQVVTLFFQDSDRILNDLSLSLDQQVVDFKKVDPHVHQLKGSSSSIGAQRVKNACVVFRSFCEQQNVEACHRCLQQVKQEYYLVKNRLETLFKLEQQIVASGGMIPAVELGF
notes: AHP1, Arabidopsis histidine-containing phosphotransfer protein 1; Theoretical molecular weight of AHP1-GFP printed as 45.6 kDa; also called wild type AHP1-GFP
For B1, the Kd [1] was 7.7 µM, the Kd [2] was 1.4 µM and the Kd [3] was 9 µM.
